Data published in patent publication US11999805.

Tests used:
[1] = system: T1, 50-2-13
T1 sequence: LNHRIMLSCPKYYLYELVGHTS

[2] = system: T2, 50-2-16
T2 sequence: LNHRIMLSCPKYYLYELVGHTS

[3] = system: T3, 50-20-14
T3 sequence: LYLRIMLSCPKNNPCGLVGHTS

[4] = system: T4, 60-1-10
T4 sequence: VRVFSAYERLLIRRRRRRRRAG

[5] = system: T5, 60-1-56
T5 sequence: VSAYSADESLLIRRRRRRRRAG

[6] = system: T6, 63-2-27
T6 sequence: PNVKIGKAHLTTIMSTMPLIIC

[7] = system: T7, 63-2-87
T7 sequence: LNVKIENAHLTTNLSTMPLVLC

[8] = system: T8, 82-2-12
T8 sequence: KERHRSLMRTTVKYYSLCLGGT

[9] = system: T9, 82-2-21
T9 sequence: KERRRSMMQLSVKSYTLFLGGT

[10] = system: T10, 82-2-28
T10 sequence: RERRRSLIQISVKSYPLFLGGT

[11] = system: T11, 90-1-18
T11 sequence: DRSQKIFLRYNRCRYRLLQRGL

[12] = system: T12, 90-1-27
T12 sequence: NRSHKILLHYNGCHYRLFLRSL

[13] = system: T13, 90-1-50
T13 sequence: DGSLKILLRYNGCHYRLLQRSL

[14] = system: T14, 90-2-18
T14 sequence: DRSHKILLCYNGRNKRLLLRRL

[15] = system: T15, 90-2-5
T15 sequence: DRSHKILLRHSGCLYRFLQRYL

[16] = system: T16, 99-1-1
T16 sequence: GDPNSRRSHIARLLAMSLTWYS

[17] = system: T17, 99-2-2
T17 sequence: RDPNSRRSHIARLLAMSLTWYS

[18] = system: T18, Peptide 15
T18 sequence: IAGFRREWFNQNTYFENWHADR

[19] = system: T19, Peptide 50
T19 sequence: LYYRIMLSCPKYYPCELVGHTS

[20] = system: T20, Peptide 60
T20 sequence: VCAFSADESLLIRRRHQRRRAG

[21] = system: T21, Peptide 61
T21 sequence: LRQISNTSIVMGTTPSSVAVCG

[22] = system: T22, Peptide 63
T22 sequence: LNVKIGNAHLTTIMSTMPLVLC

[23] = system: T23, Peptide 73
T23 sequence: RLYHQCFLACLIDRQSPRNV

[24] = system: T24, Peptide 80
T24 sequence: TESIRSYFAMTIRRNH

[25] = system: T25, Peptide 82
T25 sequence: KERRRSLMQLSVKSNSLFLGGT

[26] = system: T26, Peptide 90
T26 sequence: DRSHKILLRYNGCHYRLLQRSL

[27] = system: T27, Peptide 91
T27 sequence: VYDFYRMLSHFFLKGPSR

[28] = system: T28, Peptide 99
T28 sequence: RRSHIAWLLAMSLTWYS

[29] = biological target: SpyCas9 (S. pyogenes) (UniProt Q99ZW2); test: cell-based or functional assay

Substance: SpyCas9
- decrease in cleavage-based fluorescence at 200 µM peptide, FRET assay [1]: All of the MPs drastically reduced SpyCas9 substrate cleavage at 200 µM with a greater than 88% decrease in fluorescence
- substrate cleavage, denaturing 15% urea PAGE, peptide 200 µM [1]: 17 hits were identified that reduced fluorescence and substrate cleavage in the Cas9 cleavage reaction (visualized by Gel) at 200 µM
- decrease in cleavage-based fluorescence at 200 µM peptide, FRET assay [2]: All of the MPs drastically reduced SpyCas9 substrate cleavage at 200 µM with a greater than 88% decrease in fluorescence
- substrate cleavage, denaturing 15% urea PAGE, peptide 200 µM [2]: 17 hits were identified that reduced fluorescence and substrate cleavage in the Cas9 cleavage reaction (visualized by Gel) at 200 µM
- decrease in cleavage-based fluorescence at 200 µM peptide, FRET assay [3]: All of the MPs drastically reduced SpyCas9 substrate cleavage at 200 µM with a greater than 88% decrease in fluorescence
- substrate cleavage, denaturing 15% urea PAGE, peptide 200 µM [3]: 17 hits were identified that reduced fluorescence and substrate cleavage in the Cas9 cleavage reaction (visualized by Gel) at 200 µM
- decrease in cleavage-based fluorescence at 200 µM peptide, FRET assay [4]: All of the MPs drastically reduced SpyCas9 substrate cleavage at 200 µM with a greater than 88% decrease in fluorescence
- substrate cleavage, denaturing 15% urea PAGE, peptide 200 µM [4]: 17 hits were identified that reduced fluorescence and substrate cleavage in the Cas9 cleavage reaction (visualized by Gel) at 200 µM
- decrease in cleavage-based fluorescence at 200 µM peptide, FRET assay [5]: All of the MPs drastically reduced SpyCas9 substrate cleavage at 200 µM with a greater than 88% decrease in fluorescence
- substrate cleavage, denaturing 15% urea PAGE, peptide 200 µM [5]: 17 hits were identified that reduced fluorescence and substrate cleavage in the Cas9 cleavage reaction (visualized by Gel) at 200 µM
- decrease in cleavage-based fluorescence at 200 µM peptide, FRET assay [6]: All of the MPs drastically reduced SpyCas9 substrate cleavage at 200 µM with a greater than 88% decrease in fluorescence
- substrate cleavage, denaturing 15% urea PAGE, peptide 200 µM [6]: 17 hits were identified that reduced fluorescence and substrate cleavage in the Cas9 cleavage reaction (visualized by Gel) at 200 µM
- decrease in cleavage-based fluorescence at 200 µM peptide, FRET assay [7]: All of the MPs drastically reduced SpyCas9 substrate cleavage at 200 µM with a greater than 88% decrease in fluorescence
- substrate cleavage, denaturing 15% urea PAGE, peptide 200 µM [7]: 17 hits were identified that reduced fluorescence and substrate cleavage in the Cas9 cleavage reaction (visualized by Gel) at 200 µM
- decrease in cleavage-based fluorescence at 200 µM peptide, FRET assay [8]: All of the MPs drastically reduced SpyCas9 substrate cleavage at 200 µM with a greater than 88% decrease in fluorescence
- substrate cleavage, denaturing 15% urea PAGE, peptide 200 µM [8]: 17 hits were identified that reduced fluorescence and substrate cleavage in the Cas9 cleavage reaction (visualized by Gel) at 200 µM
- decrease in cleavage-based fluorescence at 200 µM peptide, FRET assay [9]: All of the MPs drastically reduced SpyCas9 substrate cleavage at 200 µM with a greater than 88% decrease in fluorescence
- substrate cleavage, denaturing 15% urea PAGE, peptide 200 µM [9]: 17 hits were identified that reduced fluorescence and substrate cleavage in the Cas9 cleavage reaction (visualized by Gel) at 200 µM
- decrease in cleavage-based fluorescence at 200 µM peptide, FRET assay [10]: All of the MPs drastically reduced SpyCas9 substrate cleavage at 200 µM with a greater than 88% decrease in fluorescence
- substrate cleavage, denaturing 15% urea PAGE, peptide 200 µM [10]: 17 hits were identified that reduced fluorescence and substrate cleavage in the Cas9 cleavage reaction (visualized by Gel) at 200 µM
- decrease in cleavage-based fluorescence at 200 µM peptide, FRET assay [11]: All of the MPs drastically reduced SpyCas9 substrate cleavage at 200 µM with a greater than 88% decrease in fluorescence
- substrate cleavage, denaturing 15% urea PAGE, peptide 200 µM [11]: 17 hits were identified that reduced fluorescence and substrate cleavage in the Cas9 cleavage reaction (visualized by Gel) at 200 µM
- decrease in cleavage-based fluorescence at 200 µM peptide, FRET assay [12]: All of the MPs drastically reduced SpyCas9 substrate cleavage at 200 µM with a greater than 88% decrease in fluorescence
- substrate cleavage, denaturing 15% urea PAGE, peptide 200 µM [12]: 17 hits were identified that reduced fluorescence and substrate cleavage in the Cas9 cleavage reaction (visualized by Gel) at 200 µM
- decrease in cleavage-based fluorescence at 200 µM peptide, FRET assay [13]: All of the MPs drastically reduced SpyCas9 substrate cleavage at 200 µM with a greater than 88% decrease in fluorescence
- substrate cleavage, denaturing 15% urea PAGE, peptide 200 µM [13]: 17 hits were identified that reduced fluorescence and substrate cleavage in the Cas9 cleavage reaction (visualized by Gel) at 200 µM
- decrease in cleavage-based fluorescence at 200 µM peptide, FRET assay [14]: All of the MPs drastically reduced SpyCas9 substrate cleavage at 200 µM with a greater than 88% decrease in fluorescence
- substrate cleavage, denaturing 15% urea PAGE, peptide 200 µM [14]: 17 hits were identified that reduced fluorescence and substrate cleavage in the Cas9 cleavage reaction (visualized by Gel) at 200 µM
- decrease in cleavage-based fluorescence at 200 µM peptide, FRET assay [15]: All of the MPs drastically reduced SpyCas9 substrate cleavage at 200 µM with a greater than 88% decrease in fluorescence
- substrate cleavage, denaturing 15% urea PAGE, peptide 200 µM [15]: 17 hits were identified that reduced fluorescence and substrate cleavage in the Cas9 cleavage reaction (visualized by Gel) at 200 µM
- decrease in cleavage-based fluorescence at 200 µM peptide, FRET assay [16]: All of the MPs drastically reduced SpyCas9 substrate cleavage at 200 µM with a greater than 88% decrease in fluorescence
- substrate cleavage, denaturing 15% urea PAGE, peptide 200 µM [16]: 17 hits were identified that reduced fluorescence and substrate cleavage in the Cas9 cleavage reaction (visualized by Gel) at 200 µM
- decrease in cleavage-based fluorescence at 200 µM peptide, FRET assay [17]: All of the MPs drastically reduced SpyCas9 substrate cleavage at 200 µM with a greater than 88% decrease in fluorescence
- substrate cleavage, denaturing 15% urea PAGE, peptide 200 µM [17]: 17 hits were identified that reduced fluorescence and substrate cleavage in the Cas9 cleavage reaction (visualized by Gel) at 200 µM
- % activity, FRET cleavage assay [18]: Peptide15 significantly reduced activity of CjeCas9 and SpyCas9 and SauCas9 at 200 µM (P<0.01)
- substrate cleavage, FRET assay, peptide 200 to 12.5 µM [18]: the peptides inhibited substrate cleavage in a peptide concentration-dependent manner
- substrate cleavage, FRET assay, peptide 200 to 12.5 µM [19]: the peptides inhibited substrate cleavage in a peptide concentration-dependent manner
- % activity, FRET cleavage assay [20]: Peptide 60, 90, and 91 significantly reduced activity of SauCas9 and SpyCas9 at 200 µM (P<0.005)
- substrate cleavage, FRET assay, peptide 200 to 12.5 µM [20]: the peptides inhibited substrate cleavage in a peptide concentration-dependent manner
- substrate cleavage, FRET assay, peptide 200 to 12.5 µM [21]: the peptides inhibited substrate cleavage in a peptide concentration-dependent manner
- substrate cleavage, FRET assay, peptide 200 to 12.5 µM [22]: the peptides inhibited substrate cleavage in a peptide concentration-dependent manner
- substrate cleavage, FRET assay, peptide 200 to 12.5 µM [23]: the peptides inhibited substrate cleavage in a peptide concentration-dependent manner
- substrate cleavage, FRET assay, peptide 200 to 12.5 µM [24]: the peptides inhibited substrate cleavage in a peptide concentration-dependent manner
- substrate cleavage, FRET assay, peptide 200 to 12.5 µM [25]: the peptides inhibited substrate cleavage in a peptide concentration-dependent manner
- % activity, FRET cleavage assay [26]: Peptide 60, 90, and 91 significantly reduced activity of SauCas9 and SpyCas9 at 200 µM (P<0.005)
- substrate cleavage, FRET assay, peptide 200 to 12.5 µM [26]: the peptides inhibited substrate cleavage in a peptide concentration-dependent manner
- % activity, FRET cleavage assay [27]: Peptide 60, 90, and 91 significantly reduced activity of SauCas9 and SpyCas9 at 200 µM (P<0.005)
- substrate cleavage, FRET assay, peptide 200 to 12.5 µM [27]: the peptides inhibited substrate cleavage in a peptide concentration-dependent manner
- % activity, FRET cleavage assay [28]: Peptide 99 significantly reduced activity of all three Cas9 variants at 100 and 200 µM (P<0.005)
- substrate cleavage, FRET assay, peptide 200 to 12.5 µM [28]: the peptides inhibited substrate cleavage in a peptide concentration-dependent manner

Substance: AcrIIA4
- reduced editing (compared to plasmid control), A549 GFP reporter cells [29]: 74%
